According to US20160000910A1 (AC IMMUNE S A, published 2016):

B1: mouse monoclonal antibody ACI-11-Ab-9 (antibody, V domains shown)
VH: QVQLQQSDAELVKPGASVKISCKVSGYTFTDHTIHWMKQRPEQGLEWIGYIYPRDGSTKYNEKFKGKATLTADKSSSTAYMQLNSLTSEDSAVYFCARDYGYAFDYWGQGTTLTVSS
VL: QAVVTQESALTTSPGGTVILTCRSSTGAVTTSNYANWVQEKPDHLFTGLIGGTSNRAPGVPVRFSGSLIGDKAALTITGAQTEDDAMYFCALWYSTHYVFGGGTKVTVL
notes: also called clone FG1F9E4; DSM ACC2845
B2: mouse monoclonal antibody ACI-12-Ab-11 (antibody, V domains shown)
VH: B1 VH
VL: B1 VL
notes: also called clone FK2A6A6; DSM ACC2846

Columns and labels:
[1] = target: T1, biotinylated Aβ17-40 peptide (biotinylated (position not given)); experiment: ELISA, biotinylated peptide (Anaspec) on streptavidin plate, 10 µg/ml mAb
T1 construct: Peptide from Anaspec
T1 peptide: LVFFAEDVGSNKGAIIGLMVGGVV
Source text: (§1) The peptides in the peptide library were composed of 8, 9 or 10-mer aa peptides. A biotinylated complete Aβ1-42 peptide (human sequence) was used as positive control (Bachem, Bubendorf, Switzerland). In addition, longer peptides covering Aβ1-28, Aβ17-40, Aβ1-40 and Aβ1-42 were used to define the broader region to which these antibodies may bind. These 4 peptides were also biotinlyated (manufactured by Anaspec and purchased from ANAWA Trading SA, Switzerland). Epitope mapping was done according to the manufacturer's (Mimotopes) instructions. Briefly, Streptavidin coated plates (NUNC, Roskilde, Denmark) were blocked with 0.1% BSA in PBS overnight at 4° C. After washing with PBS-0.05% Tween 20, plates were coated for 1 hour at RT with the different peptides from the library, diluted in 0.1% BSA, 0.1% Sodium Azide in PBS to a final concentration of 10 μM. […] Plates were washed again and incubated with alkaline phosphatase conjugated goat anti mouse IgG (Jackson Immunresearch West Grove, Pa., USA) for 1 h at RT. After final washing, plates were incubated with phosphatase substrate (pNPP, Sigma-Aldrich, St Louis, Mo., USA) and read after 3 hours of incubation at 405 nm using an ELISA plate reader.

[2] = target: T2, biotinylated Aβ1-40 peptide (biotinylated (position not given)); experiment: as above
T2 construct: Peptide from Anaspec; also called Ab1-40
Source text: as §1

[3] = target: T1, biotinylated Aβ17-40 peptide; experiment: ELISA, biotinylated peptide on streptavidin plate
Source text: as §1

[4] = target: Aβ1-42 peptide (Thioflavin T assay); experiment: cell-based or functional assay
[5] = target: Aβ1-42 library peptide 13; experiment: peptide library ELISA, 10 µg/ml mAb
Source text: as §1

[6] = target: Aβ1-42 library peptide 32; experiment: peptide library ELISA, 10 µg/ml mAb
Source text: as §1

[7] = target: Aβ1-42 library peptide 25; experiment: peptide library ELISA, 10 µg/ml mAb
Source text: as §1

Aβ1-42 library peptide 2 = experiment: peptide library ELISA, 10 µg/ml mAb
Source text: as §1

[8] = target: Aβ1-42 library peptide 16; experiment: peptide library ELISA, 10 µg/ml mAb
Source text: as §1

[9] = target: Aβ1-42 library peptide 28; experiment: peptide library ELISA, 10 µg/ml mAb
Source text: as §1

[10] = target: Aβ1-42 library peptide 30; experiment: peptide library ELISA, 10 µg/ml mAb
Source text: as §1

[11] = target: Aβ1-42 library peptide 14; experiment: peptide library ELISA, 10 µg/ml mAb
Source text: as §1

[12] = target: Aβ1-42 library peptide 12; experiment: peptide library ELISA, 10 µg/ml mAb
Source text: as §1

Aβ1-42 library peptide 5 = experiment: peptide library ELISA, 10 µg/ml mAb
Source text: as §1

[13] = target: Aβ1-42 library peptide 21; experiment: peptide library ELISA, 10 µg/ml mAb
Source text: as §1

Aβ1-42 library peptide 3 = experiment: peptide library ELISA, 10 µg/ml mAb
Source text: as §1

[14] = target: Aβ1-42 library peptide 27; experiment: peptide library ELISA, 10 µg/ml mAb
Source text: as §1

Aβ1-42 library peptide 6 = experiment: peptide library ELISA, 10 µg/ml mAb
Source text: as §1

[15] = target: Aβ1-42 library peptide 22; experiment: peptide library ELISA, 10 µg/ml mAb
Source text: as §1

[16] = target: Aβ1-42 library peptide 10; experiment: peptide library ELISA, 10 µg/ml mAb
Source text: as §1

[17] = target: Aβ1-42 library peptide 31; experiment: peptide library ELISA, 10 µg/ml mAb
Source text: as §1

[18] = target: Aβ1-42 library peptide 18; experiment: peptide library ELISA, 10 µg/ml mAb
Source text: as §1

[19] = target: Aβ1-42 library peptide 33; experiment: peptide library ELISA, 10 µg/ml mAb
Source text: as §1

[20] = target: Aβ1-42 library peptide 11; experiment: peptide library ELISA, 10 µg/ml mAb
Source text: as §1

[21] = target: Aβ1-42 library peptide 20; experiment: peptide library ELISA, 10 µg/ml mAb
Source text: as §1

[22] = target: Aβ1-42 library peptide 19; experiment: peptide library ELISA, 10 µg/ml mAb
Source text: as §1

[23] = target: Aβ1-42 library peptide 17; experiment: peptide library ELISA, 10 µg/ml mAb
Source text: as §1

Aβ1-42 library peptide 8 = experiment: peptide library ELISA, 10 µg/ml mAb
Source text: as §1

[24] = target: Aβ1-42 library peptide 24; experiment: peptide library ELISA, 10 µg/ml mAb
Source text: as §1

[25] = target: Aβ1-42 library peptide 15; experiment: peptide library ELISA, 10 µg/ml mAb
Source text: as §1

[26] = target: Aβ1-42 library peptide 26; experiment: peptide library ELISA, 10 µg/ml mAb
Source text: as §1

Aβ1-42 library peptide 7 = experiment: peptide library ELISA, 10 µg/ml mAb
Source text: as §1

Aβ1-42 library peptide 1 = experiment: peptide library ELISA, 10 µg/ml mAb
Source text: as §1

Aβ1-42 library peptide 9 = experiment: peptide library ELISA, 10 µg/ml mAb
Source text: as §1

[27] = target: Aβ1-42 library peptide 29; experiment: peptide library ELISA, 10 µg/ml mAb
Source text: as §1

Aβ1-42 library peptide 4 = experiment: peptide library ELISA, 10 µg/ml mAb
Source text: as §1

[28] = target: Aβ1-42 library peptide 23; experiment: peptide library ELISA, 10 µg/ml mAb
Source text: as §1

[29] = target: T3, biotinylated complete Aβ1-42 peptide (human sequence) (human, biotinylated (position not given)); experiment: peptide library ELISA, complete Aβ1-42 (Bachem) as positive control, 10 µg/ml mAb
T3 construct: Same peptide from two suppliers (1-42A Anaspec, 1-42B Bachem); the supplier is named under assay; also called Ab1-42; 1-42A (Anaspec)
Source text: as §1

Chain of Aβ1-42 peptide (Thioflavin T assay) (peptide, as listed by the source): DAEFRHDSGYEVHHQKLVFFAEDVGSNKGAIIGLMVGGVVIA
T3 sequence (peptide, as listed by the source): as above

| Binder | O.D. after background subtraction (mean) [1] [O.D.] | O.D. after background subtraction (mean) [2] [O.D.] | disaggregation of pre-aggregated Aβ1-42, Thioflavin T fluorescence, antibody to Aβ1-42 molar ratio 1:10 [4] [%] | disaggregation of pre-aggregated Aβ1-42, Thioflavin T fluorescence, antibody to Aβ1-42 molar ratio 1:100 [4] [%] | inhibition of Aβ1-42 aggregation, Thioflavin T fluorescence, antibody to Aβ1-42 molar ratio 1:10 [4] [%] | inhibition of Aβ1-42 aggregation, Thioflavin T fluorescence, antibody to Aβ1-42 molar ratio 1:100 [4] [%] | O.D. [5] [O.D.] | O.D. [6] [O.D.] | O.D. [7] [O.D.] | O.D. (Aβ1-42 library peptide 2) [O.D.] | O.D. [8] [O.D.] | O.D. [9] [O.D.] | O.D. [10] [O.D.] | O.D. [11] [O.D.] | O.D. [12] [O.D.] | O.D. (Aβ1-42 library peptide 5) [O.D.] | O.D. [13] [O.D.] | O.D. (Aβ1-42 library peptide 3) [O.D.] | O.D. [14] [O.D.] | O.D. (Aβ1-42 library peptide 6) [O.D.] | also measured |
| --- | --- | --- | --- | --- | --- | --- | --- | --- | --- | --- | --- | --- | --- | --- | --- | --- | --- | --- | --- | --- | --- |
| B1 | 0.02 | 1.02 | 52 | 22 | 69 | 34 | 0.17 | 0.12 | 0.11 | 0.1 | 0.14 | 0.12 | 0.11 | 0.16 | 0.24 | 0.11 | 0.1 | 0.12 | 0.13 | 0.11 | binding result [3]: no binding (tested: 10 µg/ml); O.D. [15]: 0.1 O.D.; O.D. [16]: 0.13 O.D.; O.D. [17]: 0.12 O.D.; O.D. [18]: 0.11 O.D.; O.D. [19]: 0.11 O.D.; O.D. [20]: 0.11 O.D.; O.D. [21]: 0.1 O.D.; O.D. [22]: 0.1 O.D.; O.D. [23]: 0.13 O.D.; O.D. (Aβ1-42 library peptide 8): 0.11 O.D.; O.D. [24]: 0.1 O.D.; O.D. [25]: 0.14 O.D.; O.D. [26]: 0.12 O.D.; O.D. (Aβ1-42 library peptide 7): 0.11 O.D.; O.D. (Aβ1-42 library peptide 1): 0.1 O.D.; O.D. (Aβ1-42 library peptide 9): 0.11 O.D.; O.D. [27]: 0.2 O.D.; O.D. (Aβ1-42 library peptide 4): 0.11 O.D.; O.D. [28]: 0.11 O.D. |
| B2 | -0.02 | 0.62 | 54 | 18 | 66 | 30 | 0.15 | 0.11 | 0.11 | 0.1 | 0.14 | 0.11 | 0.11 | 0.12 | 0.21 | 0.1 | 0.09 | 0.11 | 0.12 | 0.1 | O.D. [29]: 0.69 O.D.; O.D. [15]: 0.1 O.D.; O.D. [16]: 0.1 O.D.; O.D. [17]: 0.11 O.D.; O.D. [18]: 0.1 O.D.; O.D. [19]: 0.11 O.D.; O.D. [20]: 0.11 O.D.; O.D. [21]: 0.1 O.D.; O.D. [22]: 0.1 O.D.; O.D. [23]: 0.12 O.D.; O.D. (Aβ1-42 library peptide 8): 0.1 O.D.; O.D. [24]: 0.1 O.D.; O.D. [25]: 0.1 O.D.; O.D. [26]: 0.12 O.D.; O.D. (Aβ1-42 library peptide 7): 0.1 O.D.; O.D. (Aβ1-42 library peptide 1): 0.1 O.D.; O.D. (Aβ1-42 library peptide 9): 0.1 O.D.; O.D. [27]: 0.11 O.D.; O.D. (Aβ1-42 library peptide 4): 0.1 O.D.; O.D. [28]: 0.1 O.D. |
